Where a chain is given by its changes, count along the chain named.
T1: human CLDN3 (human, UniProt O15551 1-220)
T1 construct: also called hCLDN3; hCLDN3/BaF
T1 sequence: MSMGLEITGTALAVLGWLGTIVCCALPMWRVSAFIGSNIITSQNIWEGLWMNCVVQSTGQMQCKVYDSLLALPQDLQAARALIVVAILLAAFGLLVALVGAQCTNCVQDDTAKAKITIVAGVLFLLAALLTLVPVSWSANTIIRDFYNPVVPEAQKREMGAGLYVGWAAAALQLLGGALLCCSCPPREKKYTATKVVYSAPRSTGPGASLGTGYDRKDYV

T2: mouse CLDN3 (mouse, UniProt Q9Z0G9 1-219)
T2 construct: also called mCLDN3; mCLDN3/FS293
T2 sequence: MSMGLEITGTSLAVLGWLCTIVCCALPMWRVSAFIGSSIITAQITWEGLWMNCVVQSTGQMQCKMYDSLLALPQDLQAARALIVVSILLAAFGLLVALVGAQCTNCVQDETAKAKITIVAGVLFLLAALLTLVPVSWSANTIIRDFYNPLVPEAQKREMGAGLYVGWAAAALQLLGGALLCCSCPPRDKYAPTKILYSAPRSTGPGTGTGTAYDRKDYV

T3: mouse CLDN9 (mouse, UniProt Q9Z0S7 1-217)
T3 construct: also called mCLDN9; mCLDN9/FS293
T3 sequence: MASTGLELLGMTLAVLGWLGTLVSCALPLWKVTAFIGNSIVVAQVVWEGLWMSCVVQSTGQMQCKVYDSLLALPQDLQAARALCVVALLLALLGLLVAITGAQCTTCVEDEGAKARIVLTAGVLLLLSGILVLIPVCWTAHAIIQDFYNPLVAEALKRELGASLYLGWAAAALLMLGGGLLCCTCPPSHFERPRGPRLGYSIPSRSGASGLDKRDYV

T4: mouse CLDN6 (mouse, UniProt Q9Z262 1-219)
T4 construct: also called mCLDN6; mCLDN6/FS293
T4 chain: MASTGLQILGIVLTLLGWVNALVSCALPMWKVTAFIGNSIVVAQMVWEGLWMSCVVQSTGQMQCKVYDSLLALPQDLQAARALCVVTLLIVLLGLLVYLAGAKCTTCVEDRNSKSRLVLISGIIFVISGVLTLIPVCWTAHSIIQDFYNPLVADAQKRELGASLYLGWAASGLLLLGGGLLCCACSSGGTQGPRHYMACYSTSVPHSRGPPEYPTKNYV

T5: human CLDN4 (human, UniProt O14493 1-209)
T5 construct: also called hCLDN4; hCLDN4/BaF
T5 sequence: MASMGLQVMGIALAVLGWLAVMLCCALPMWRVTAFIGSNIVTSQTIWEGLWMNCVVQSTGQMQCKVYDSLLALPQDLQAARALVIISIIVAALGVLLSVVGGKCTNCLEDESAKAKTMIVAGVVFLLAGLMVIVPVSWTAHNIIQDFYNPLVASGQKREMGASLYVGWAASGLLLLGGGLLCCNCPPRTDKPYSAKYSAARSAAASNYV

B1: AH05/TR01 (bispecific antibody, V domains shown)
VH 1: EVQVEQSGPELVKPGASVKISCKTSGYTFTEYTMHWVKQSHGKSLEWIGGINPNNGNTRYNQKFKGKATLTVDKSSSTAYMELRTLTSEDSAVYYCARCGDFDLFFFFAYWGQGTLVTVSA
VL 1: DIVMTQSQKFMSTSVGDRVSVTCKASQNVGSNVAWYQQKPGQSPEGLISSASSRFSGVPDRFTGSGSGTDFTLTITNVQSEDLAEYFCQQYNSYPFTFGSGTELEIK
VH 2: QVQLVESGGGVVQPGGSLRLSCAASGFTFSNAWMHWVRQAPGKGLEWVAQIKDKSQNYATYVAESVKGRFTISRADSKNSIYLQMNSLKTEDTAVYYCRYVHYAAGYGVDIWGQGTTVTVSS
VL 2: DIVMTQSPLSLPVTPGEPASISCRSSQPLVHSNRNTYLHWYQQKPGQAPRLLIYKVSNRFSGVPDRFSGSGSGTDFTLKISRVEAEDVGVYYCGQGTQVPYTFGQGTKLEIK
notes: IgG format by Fab arm exchange, silent Fc; also called anti-CLDN6/CD3 bispecific antibody AH05/TR01
B2: AE3-20/TR01 (bispecific antibody, V domains shown)
VH 1: EVKLVESGGGLVKPGGSLKLSCAASGFTFNSYTMSWVRQTPAKRLEWVVTISSGGGRTYYPDSVKGRFTISRDNARNTLYLQMSSLRSEDTAMYYCIRGDYRYDGFAYWGQGTLVTVST
VL 1: DIQMTQSPASLSASVGETVTITCRASENIDSYLAWYQQKQGKSPQLLVYASTLLVDGVPSRFSGSRSGTQFSLKINSLQSEDVARYYCQHYYSIPYTFGSGTKLEIK
VH 2: B1 VH 2
VL 2: B1 VL 2
notes: also called anti-CLDN6/CD3 bispecific antibody AE3-20/TR01; AE3.20H/AE3.20L//TR01
B3: bivalent IgG antibody 25H0021/20L0072 (antibody, V domains shown)
VH: QVQLVESGGGVVQPGRSLRLSCAASGFTFSSLTMSWVRQAPGQGLEWMGTISSGGGRTYYPDSVKGRFTISRDNSKNTLYLQMNSLRAEDTAVYYCARGDYRYDGFAYWGQGTLVTVSS
VL: DIQMTQSPSSLSASVGDRVTITCRASYNIDSYLAWYQQKPGKAPKLLIYASTLLVDGVPSRFSGSRSGTDFTLTISSLQPEDFATYYCQHYYSIPYTFGQGTKLEIK
B4: CS2201 (bispecific antibody, V domains shown)
VH 1: B3 VH with L32Y
VL 1: B3 VL with A50Y
VH 2: B1 VH 2
VL 2: B1 VL 2
notes: Fab arm exchange, silent Fc; also called 25H/20L0532//TR01
B5: bivalent IgG antibody 25H0562/20L0072 (antibody, V domains shown)
VH: B3 VH with L32Y, Y108M
VL: B3 VL
B6: bivalent IgG antibody 25H0042/20L0072 (antibody, V domains shown)
VH: B3 VH with L32Y, T33V
VL: B3 VL
B7: bivalent IgG antibody 25H0176/20L0072 (antibody, V domains shown)
VH: B3 VH with L32Y, G54K
VL: B3 VL
B8: bivalent IgG antibody 25H0024/20L0072 (antibody, V domains shown)
VH: B3 VH with L32V
VL: B3 VL
B9: bivalent IgG antibody 25H0322/20L0072 (antibody, V domains shown)
VH: B3 VH with L32Y, D62F
VL: B3 VL

Columns and labels:
ECM [1] = test: ECM binding assay, ECL reaction
ECM [2] = test: ECM binding assay, ECL reaction, value divided by that of MRA
human CLDN3 [3] = molecular target: T1, human CLDN3; test: flow cytometry, FreeStyle 293-F transfectants expressing human CLDN3, anti-human IgG Alexa Fluor 647; MFI
Method: (§1) Antibodies were mixed with FreeStyle™ 293-F cells transiently expressed human and mouse CLDN3, 4, 6, and 9 at final concentration of 10 micro g/mL. After 1 hour of incubation, cells were washed by 0.1% BSA containing D-PBS(−), and incubated in 5 micro g/mL of either Goat anti-Human IgG (H+L) Cross-Adsorbed Secondary Antibody, Alexa Fluor 647 (Invitrogen, A21445) or Goat anti-Mouse IgG (H+L) Highly Cross-Adsorbed Secondary Antibody, Alexa Fluor 647 (Invitrogen, A21236), for 1 hour. Cells were then washed with 0.1% BSA containing D-PBS(−), resuspended in 5 micro L of 0.1% BSA containing D-PBS(−), and analyzed by flow cytometer (iQue Screener, intellicyte).

mouse CLDN3 = molecular target: T2, mouse CLDN3; test: flow cytometry, FreeStyle 293-F transfectants expressing mouse CLDN3, anti-human IgG Alexa Fluor 647; MFI
Method: as §1

mouse CLDN9 = molecular target: T3, mouse CLDN9; test: flow cytometry, FreeStyle 293-F transfectants expressing mouse CLDN9, anti-human IgG Alexa Fluor 647; MFI
Method: as §1

mouse CLDN6 = molecular target: T4, mouse CLDN6; test: flow cytometry, FreeStyle 293-F transfectants expressing mouse CLDN6, 10 micro g/mL antibody, anti-human IgG Alexa Fluor 647; MFI
Method: as §1

human CLDN3 [4] = molecular target: T1, human CLDN3; test: flow cytometry on hCLDN3/BaF (Ba/F3 transfectant), 15 micro g/ml antibody, Alexa Fluor 488 anti-human IgG; histogram against KLH/TR01
Method: (§2) Amino acid sequence are highly conserved among CLDN3, CLDN4, CLDN6 and CLDN9. Thus we examined CLDN6 binding specificity by FACS analysis. hCLDN6/BaF, hCLDN3/BaF, hCLDN4/BaF, and hCLDN9/BaF were incubated with CS2201, CS2961, AH05/TR01 and 6PHU3/TR01 at 15 micro g/ml. KLH/TR01 generated in Example 2-3 was used as a staining control. Binding of each antibody was detected with Alexa Fluor 488-conjugated anti human IgG (Invitrogen). Dead cells were separated by eFlour 780 (Invitrogen) staining.

human CLDN4 = molecular target: T5, human CLDN4; test: flow cytometry on hCLDN4/BaF (Ba/F3 transfectant), 15 micro g/ml antibody, Alexa Fluor 488 anti-human IgG; histogram against KLH/TR01
Source text: FIG. 35-1. Binding activity of anti-CLDN6/CD3 bispecific antibodies (CS2201, CS2961, AH05/TR01, and 6PHU3/TR01) to human CLDN family proteins (CLDN3, CLDN4, CLDN6, and CLDN9). Binding activity of anti-CLDN6/CD3 bispecific antibodies to BaF3 transfectants (hCLDN6/BaF, hCLDN3/BaF, hCLDN4/BaF, and hCLDN9/BaF) was examined by flow cytometer in a concentration of 15 micro g/ml, and plotted as histogram. KLH/TR01 was used as a negative control. The specificity of CS2961 to human CLDN6 was highest among the tested antibodies.
as §2

Molecule	Luminescence (ECM [1])	Luminescence ratio vs MRA (ECM [2]) [fold]	further results
MRA (antibody)	13000	1	–
B1	–	–	binding result (human CLDN3 [3]): no binding (tested: 10 micro g/mL); binding result (mouse CLDN3): no binding (tested: 10 micro g/mL); binding result (mouse CLDN9): no binding (tested: 10 micro g/mL); binding result (mouse CLDN6): binds
B2	–	–	binding result (human CLDN3 [3]): no binding (tested: 10 micro g/mL); binding result (mouse CLDN3): no binding (tested: 10 micro g/mL)
B3	32900	2.52	–
B4	–	–	binding result (human CLDN3 [4]): binds; binding result (human CLDN4): binds
B5	32600	2.5	–
B6	40400	3.1	–
B7	77000	5.91	–
B8	29600	2.27	–
B9	70600	5.41	–

Reference: patent publication US20230057904A1 (Chugai, published 2023)
